The target in experiment [1] is T1, FLAG-tagged mouse Fpr1 (Mm_Fpr1) (mouse, UniProt P33766 1-364).
T1 sequence (looked up): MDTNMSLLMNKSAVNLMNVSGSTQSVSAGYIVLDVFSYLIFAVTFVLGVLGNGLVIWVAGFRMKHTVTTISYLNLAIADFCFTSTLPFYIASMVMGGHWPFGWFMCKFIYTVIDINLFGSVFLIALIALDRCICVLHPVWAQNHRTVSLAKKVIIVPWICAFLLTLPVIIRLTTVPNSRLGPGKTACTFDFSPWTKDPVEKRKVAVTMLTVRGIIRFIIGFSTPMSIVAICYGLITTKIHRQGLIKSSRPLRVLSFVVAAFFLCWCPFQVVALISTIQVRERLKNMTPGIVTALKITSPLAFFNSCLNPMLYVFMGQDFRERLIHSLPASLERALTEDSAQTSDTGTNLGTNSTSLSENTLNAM

The target in experiment [2] is T2, FLAG-tagged human FPR1 (Hs_FPR1) (human, UniProt P21462 1-350).
T2 sequence (looked up): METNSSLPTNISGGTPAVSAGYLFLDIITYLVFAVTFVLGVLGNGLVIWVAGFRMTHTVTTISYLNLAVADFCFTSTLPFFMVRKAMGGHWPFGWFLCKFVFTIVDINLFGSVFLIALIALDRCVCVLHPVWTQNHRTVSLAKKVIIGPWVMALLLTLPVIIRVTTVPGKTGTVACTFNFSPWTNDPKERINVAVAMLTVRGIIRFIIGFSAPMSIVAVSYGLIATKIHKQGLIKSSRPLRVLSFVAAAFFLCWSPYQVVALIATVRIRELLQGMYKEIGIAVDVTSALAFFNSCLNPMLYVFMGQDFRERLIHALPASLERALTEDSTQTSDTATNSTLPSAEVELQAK

For experiment [3], the target named is T3, FLAG-tagged human FPR2 (Hs_FPR2) (human, UniProt P25090 1-351).
T3 sequence (looked up): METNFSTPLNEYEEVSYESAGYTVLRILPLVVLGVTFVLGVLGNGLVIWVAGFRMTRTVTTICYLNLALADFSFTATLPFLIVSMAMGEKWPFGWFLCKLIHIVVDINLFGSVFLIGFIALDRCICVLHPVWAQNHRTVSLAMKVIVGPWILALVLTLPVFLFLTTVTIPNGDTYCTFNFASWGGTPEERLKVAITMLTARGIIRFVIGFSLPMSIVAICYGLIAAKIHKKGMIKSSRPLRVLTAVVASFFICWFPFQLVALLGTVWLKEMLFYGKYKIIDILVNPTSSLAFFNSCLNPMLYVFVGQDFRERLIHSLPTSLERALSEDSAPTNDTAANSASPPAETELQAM

For experiment [4], the target named is T1, FLAG-tagged mouse Fpr1 (Mm_Fpr1). The source holds these as a separate data set.
In experiment [5] the target is T4, FLAG-tagged mouse Fpr2 (Mm_Fpr2) (mouse, UniProt O88536 1-351).
T4 sequence (looked up): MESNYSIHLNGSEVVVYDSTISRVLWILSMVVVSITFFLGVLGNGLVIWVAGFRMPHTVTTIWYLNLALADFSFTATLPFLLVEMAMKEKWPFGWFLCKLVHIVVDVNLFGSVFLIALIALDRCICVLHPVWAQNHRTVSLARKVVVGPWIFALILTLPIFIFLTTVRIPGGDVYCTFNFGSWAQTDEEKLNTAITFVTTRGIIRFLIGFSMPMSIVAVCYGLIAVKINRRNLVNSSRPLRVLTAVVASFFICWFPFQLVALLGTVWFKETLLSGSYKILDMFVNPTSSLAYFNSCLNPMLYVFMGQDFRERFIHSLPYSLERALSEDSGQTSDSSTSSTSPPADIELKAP

The target in experiment [6] is T2, FLAG-tagged human FPR1 (Hs_FPR1). This is another data set of the same source.
The target of experiment [7] is T3, FLAG-tagged human FPR2 (Hs_FPR2). The source holds these as a separate data set.
For experiment [8], the target named is T2, FLAG-tagged human FPR1 (Hs_FPR1). Kind of experiment: flow cytometry on cells; competition binding: HEK293 cells stably expressing the receptor, lifted in PBS, on ice 90 min with 10 nM K(5/6-FAM)-WKYMVm and increasing unlabeled ligand; mean fluorescence of 5000 cells as % of that without competitor; One site-Fit logIC50. For orientation: Flow cytometry measures light scatter and fluorescence of single cells or particles in a stream.

Experiment [9] addresses T5, FLAG-Hs_FPR2 C-terminally fused to Renilla Luciferase 8 (human, UniProt P25090 1-351).
T5 sequence (looked up): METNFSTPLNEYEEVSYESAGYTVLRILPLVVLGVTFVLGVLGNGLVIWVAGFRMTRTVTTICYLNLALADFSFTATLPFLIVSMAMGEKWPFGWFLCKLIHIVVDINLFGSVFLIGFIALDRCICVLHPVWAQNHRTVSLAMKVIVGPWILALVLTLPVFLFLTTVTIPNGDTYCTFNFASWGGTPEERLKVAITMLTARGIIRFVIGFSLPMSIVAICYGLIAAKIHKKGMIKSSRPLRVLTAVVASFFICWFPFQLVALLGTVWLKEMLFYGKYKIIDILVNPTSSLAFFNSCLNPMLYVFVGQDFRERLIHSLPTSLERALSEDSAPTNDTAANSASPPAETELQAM
The experiment can be described thus: cell-based or functional assay.

Experiment [10] deals with T6, FLAG-Mm_Fpr1 C-terminally fused to Renilla Luciferase 8 (mouse, UniProt P33766 1-364).
T6 sequence (looked up): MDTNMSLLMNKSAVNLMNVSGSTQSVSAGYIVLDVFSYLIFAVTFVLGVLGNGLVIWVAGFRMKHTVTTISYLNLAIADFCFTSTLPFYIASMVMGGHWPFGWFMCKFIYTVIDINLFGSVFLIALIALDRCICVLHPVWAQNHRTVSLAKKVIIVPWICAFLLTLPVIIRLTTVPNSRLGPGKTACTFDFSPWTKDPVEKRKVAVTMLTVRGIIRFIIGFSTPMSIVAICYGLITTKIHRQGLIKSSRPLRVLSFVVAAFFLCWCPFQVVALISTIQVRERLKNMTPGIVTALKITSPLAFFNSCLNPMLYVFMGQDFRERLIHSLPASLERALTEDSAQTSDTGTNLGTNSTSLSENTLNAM
Kind of experiment: cell-based or functional assay.

In experiment [11] the target is T7, FLAG-Mm_Fpr2 C-terminally fused to Renilla Luciferase 8 (mouse, UniProt O88536 1-351).
T7 sequence (looked up): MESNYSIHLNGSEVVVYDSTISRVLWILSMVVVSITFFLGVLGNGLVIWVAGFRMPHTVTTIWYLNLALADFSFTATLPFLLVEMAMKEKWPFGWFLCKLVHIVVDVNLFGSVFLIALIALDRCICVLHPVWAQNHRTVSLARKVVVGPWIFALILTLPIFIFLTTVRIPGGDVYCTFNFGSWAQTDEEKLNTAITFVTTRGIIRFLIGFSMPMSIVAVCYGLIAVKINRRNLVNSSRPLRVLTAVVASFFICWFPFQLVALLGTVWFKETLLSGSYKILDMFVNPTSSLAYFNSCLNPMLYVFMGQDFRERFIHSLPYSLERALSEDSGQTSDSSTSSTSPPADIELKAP
Kind of experiment: cell-based or functional assay.

The target in experiment [12] is T3, FLAG-tagged human FPR2 (Hs_FPR2). Kind of experiment: cell-based or functional assay.
Experiment [13] concerns the target T5, FLAG-Hs_FPR2 C-terminally fused to …. Kind of experiment: cell-based or functional assay. The source holds these as a separate data set.
Experiment [14] concerns the target T7, FLAG-Mm_Fpr2 C-terminally fused to …. Kind of experiment: cell-based or functional assay. The source holds these as a separate data set.
The target in experiment [15] is T1, FLAG-tagged mouse Fpr1 (Mm_Fpr1). Kind of experiment: cell-based or functional assay.
For experiment [16], the target named is T3, FLAG-tagged human FPR2 (Hs_FPR2). The experiment can be described thus: cell-based or functional assay. The source holds these as a separate data set.

Like-named read-outs stand apart in the source and are kept apart here. Where no end group is shown, it is not given here. The star is where a group is joined. For = O=C*

As to fMet-Leu-Phe (fMLF) (peptide), the ERK1/2 phosphorylation (Western blot): Emax (% of 1 μM WKYMVm) in [1] stood at 72.7%; in [2], 143%; in experiment [3], 40.2%. In addition, the ERK1/2 phosphorylation (Western blot): Log EC50 (M) was -5.64 log M in experiment [1], -8.91 log M in experiment [2] and -4.82 log M in [3]. The receptor internalization (flow cytometry): Emax (% of 1 μM WKYMVm) in [4] came to 92.5%; in experiment [5], 54.4%; in [6] it was 92.1%; in [7], 0.343%. Moreover, the receptor internalization (flow cytometry): Log EC50 (M) in experiment [4] is -5.35 log M; in experiment [5] it was -3.8 log M; in [6] it was -7.38 log M; in [7], -8.95 log M. In experiment [8], this molecule showed a Log IC50 of -6.19 log M. The Max Comp (%) in experiment [8] was found to be 88%.

On to For-MTPMRKINPLMKLIN [MCT-2 (Formyl-MTPMRKINPLMKLIN from Cytochrome b)], for which, in [9], the “BRET of receptor-RLuc8 with Venus-mGsi: Emax (% of 1 μM WKYMVm)” value stood at 44.4% and the “BRET of receptor-RLuc8 with Venus-mGsi: Log EC50 (M)” value (from here on “BRET … with Venus-mGsi: Log EC50 (M)”) was -6.23 log M. In addition, in experiment [10], the “BRET of receptor-RLuc8 with Venus-mGsi: Emax (% of 1 μM WKYMVm)” value is -8.19% and the “BRET … with Venus-mGsi: Log EC50 (M)” value is -7.78 log M. In experiment [11], the “BRET of receptor-RLuc8 with Venus-mGsi: Emax (% of 1 μM WKYMVm)” value was found to be 25% and the “BRET … with Venus-mGsi: Log EC50 (M)” value was -4.77 log M. For the same molecule, in [12], the “ERK1/2 phosphorylation (Western blot): Emax (% of 1 μM WKYMVm)” value was 93.9% and the “ERK1/2 phosphorylation (Western blot): Log EC50 (M)” value is -6.72 log M. Besides, in experiment [13], the “BRET of receptor-RLuc8 with Arrestin 3-YFP: Emax (% of 1 μM WKYMVm)” value amounted to 51.8% and the “BRET of receptor-RLuc8 with Arrestin 3-YFP: Log EC50 (M)” value was -6.06 log M. Besides, in experiment [14], the “BRET of receptor-RLuc8 with Arrestin 3-YFP: Emax (% of 1 μM WKYMVm)” value stood at 12.1% and the “BRET of receptor-RLuc8 with Arrestin 3-YFP: Log EC50 (M)” value was -10.3 log M. Moreover, in experiment [15], the “receptor internalization (flow cytometry): Emax (% of 1 μM WKYMVm)” value is 7.39% and the “receptor internalization (flow cytometry): Log EC50 (M)” value is -7.24 log M. In [16], the “receptor internalization (flow cytometry): Emax (% of 1 μM WKYMVm)” value was 63.3% and the “receptor internalization (flow cytometry): Log EC50 (M)” value was -6.87 log M.

Values taken from PMC12881670, “Investigation into ligand selectivity and bias at the formyl peptide receptor family” (The Journal of Pharmacology and Experimental Therapeutics, 2025).
